Assays:
Experiment in all cases: SPR, Biacore 8K+, 37 C; antibody captured by anti-human Fc, cytokine injected
human IL-12 = biological target: T1, human IL-12 (human, UniProt P29460 23-328; P29459 23-219)
T1 construct: also called recombinant human IL-12 (p40/p35)
T1 sequence 1: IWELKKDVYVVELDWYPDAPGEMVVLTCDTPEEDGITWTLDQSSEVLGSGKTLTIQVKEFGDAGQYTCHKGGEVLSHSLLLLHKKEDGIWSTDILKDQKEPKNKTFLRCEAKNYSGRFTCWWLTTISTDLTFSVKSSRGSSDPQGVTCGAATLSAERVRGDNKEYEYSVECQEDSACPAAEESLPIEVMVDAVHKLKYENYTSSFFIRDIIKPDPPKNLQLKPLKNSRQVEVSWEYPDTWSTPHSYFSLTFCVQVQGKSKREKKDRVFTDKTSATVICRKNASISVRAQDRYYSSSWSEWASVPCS
T1 sequence 2: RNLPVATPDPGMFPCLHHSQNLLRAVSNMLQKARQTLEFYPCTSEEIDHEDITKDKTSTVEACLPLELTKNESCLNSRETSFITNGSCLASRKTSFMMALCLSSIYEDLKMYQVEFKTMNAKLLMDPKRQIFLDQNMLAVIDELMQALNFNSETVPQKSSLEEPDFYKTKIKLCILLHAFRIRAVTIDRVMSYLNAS
Method: (§1) In order to determine binding to TL1A, kinetic assays were conducted at 37° C. using a collection rate of 10 Hz on a Biacore™ T200 instrument (GE Healthcare). […] For the analysis of the p40 binding arm, kinetic assays were conducted at 37° C. using a collection rate of 10 Hz on a Biacore™ 8 K+ instrument (GE Healthcare).

rat IL-12 = biological target: T2, rat IL-12 (rat, UniProt P43432 23-335; Q9R103 23-215, limits assumed)
T2 chain 1: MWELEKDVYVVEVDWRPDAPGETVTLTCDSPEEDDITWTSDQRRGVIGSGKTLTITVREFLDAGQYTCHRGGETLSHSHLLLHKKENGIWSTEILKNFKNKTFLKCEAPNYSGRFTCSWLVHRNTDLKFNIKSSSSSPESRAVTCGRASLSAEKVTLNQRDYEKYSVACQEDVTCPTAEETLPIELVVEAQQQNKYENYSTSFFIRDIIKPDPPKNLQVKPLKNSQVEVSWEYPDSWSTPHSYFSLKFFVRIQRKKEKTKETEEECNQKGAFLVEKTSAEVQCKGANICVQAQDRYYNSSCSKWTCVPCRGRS
T2 chain 2: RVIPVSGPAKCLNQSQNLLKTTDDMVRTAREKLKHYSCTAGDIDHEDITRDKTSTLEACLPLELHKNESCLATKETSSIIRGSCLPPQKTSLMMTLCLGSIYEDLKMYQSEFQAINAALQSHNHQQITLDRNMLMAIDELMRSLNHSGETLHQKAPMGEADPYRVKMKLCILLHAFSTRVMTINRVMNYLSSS
Method: as §1

rabbit IL-12 = biological target: T3, rabbit IL-12 (rabbit)
T3 chain 1: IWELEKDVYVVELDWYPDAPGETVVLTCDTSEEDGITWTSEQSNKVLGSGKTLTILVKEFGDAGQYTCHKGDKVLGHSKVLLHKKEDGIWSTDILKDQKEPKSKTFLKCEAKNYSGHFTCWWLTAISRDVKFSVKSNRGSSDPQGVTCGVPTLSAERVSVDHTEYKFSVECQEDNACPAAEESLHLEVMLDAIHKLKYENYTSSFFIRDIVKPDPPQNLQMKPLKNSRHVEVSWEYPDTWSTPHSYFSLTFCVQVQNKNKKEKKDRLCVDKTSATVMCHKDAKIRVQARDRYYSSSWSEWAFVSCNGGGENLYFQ
T3 chain 2: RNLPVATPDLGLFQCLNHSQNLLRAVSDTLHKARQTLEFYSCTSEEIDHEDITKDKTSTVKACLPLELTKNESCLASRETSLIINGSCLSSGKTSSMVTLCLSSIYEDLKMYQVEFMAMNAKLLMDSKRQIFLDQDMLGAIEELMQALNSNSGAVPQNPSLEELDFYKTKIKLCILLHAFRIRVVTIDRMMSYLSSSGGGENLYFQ
Method: as §1

cynomolgus monkey IL-12 = biological target: T4, cynomolgus monkey IL-12 (cynomolgus monkey)
T4 construct: also called cyno IL-12
T4 chain 1: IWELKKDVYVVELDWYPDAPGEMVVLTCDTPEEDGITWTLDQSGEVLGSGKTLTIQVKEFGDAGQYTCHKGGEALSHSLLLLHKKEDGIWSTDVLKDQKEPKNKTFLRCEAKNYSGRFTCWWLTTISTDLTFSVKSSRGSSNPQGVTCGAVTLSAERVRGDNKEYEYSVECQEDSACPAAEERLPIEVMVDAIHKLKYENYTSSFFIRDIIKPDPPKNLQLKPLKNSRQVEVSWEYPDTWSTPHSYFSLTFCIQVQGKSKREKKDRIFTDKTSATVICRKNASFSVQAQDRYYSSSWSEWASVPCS
T4 chain 2: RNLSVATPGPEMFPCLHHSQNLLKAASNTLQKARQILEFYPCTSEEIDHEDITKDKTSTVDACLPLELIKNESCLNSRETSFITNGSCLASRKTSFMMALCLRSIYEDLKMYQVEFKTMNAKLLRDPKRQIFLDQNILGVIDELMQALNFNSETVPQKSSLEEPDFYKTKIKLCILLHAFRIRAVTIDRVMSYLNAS
Method: as §1

mouse IL-12 = biological target: T5, mouse IL-12 (mouse, UniProt P43432 23-335; P43431 23-215)
T5 sequence 1: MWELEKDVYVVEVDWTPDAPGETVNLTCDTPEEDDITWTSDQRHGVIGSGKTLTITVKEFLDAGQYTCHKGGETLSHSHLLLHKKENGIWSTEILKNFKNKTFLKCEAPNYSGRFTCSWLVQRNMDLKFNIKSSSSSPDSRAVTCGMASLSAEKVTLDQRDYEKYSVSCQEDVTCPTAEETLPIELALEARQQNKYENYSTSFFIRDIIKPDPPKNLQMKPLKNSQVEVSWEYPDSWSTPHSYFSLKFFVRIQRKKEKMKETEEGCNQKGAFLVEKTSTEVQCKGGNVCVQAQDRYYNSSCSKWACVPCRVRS
T5 sequence 2: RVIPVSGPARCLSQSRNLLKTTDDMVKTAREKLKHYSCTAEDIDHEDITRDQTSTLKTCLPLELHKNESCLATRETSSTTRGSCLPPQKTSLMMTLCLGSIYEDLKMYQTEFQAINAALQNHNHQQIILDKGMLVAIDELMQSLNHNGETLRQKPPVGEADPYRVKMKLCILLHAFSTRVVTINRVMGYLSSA
Method: as §1

B1: p40TL1A-0033 bispecific antibody (bispecific antibody, human IgG1, kappa)
heavy: EVQLVQSGAEVKKPGESLKISCKGSGYSFTTYWLGWVRQMPGKGLDWIGIMSPVDSDIRYSPSFQGQVTMSVDKSITTAYLQWNSLKASDTAMYYCARRRPGQGYFDFWGQGTLVTVSSASTKGPSVFPLAPSSKSTSGGTAALGCLVKDYFPEPVTVSWNSGALTSGVHTFPAVLQSSGLYSLSSVVTVPSSSLGTQTYICNVNHKPSNTKVDKKVEPKSCDKTHTCPPCPAPEAAGAPSVFLFPPKPKDTLMISRTPEVTCVVVDVSHEDPEVKFNWYVDGVEVHNAKTKPREEQYNSTYRVVSVLTVLHQDWLNGKEYKCKVSNKALPAPIEKTISKAKGQPREPQVCTLPPSREEMTKNQVSLWCLVKGFYPSDIAVEWESNGQPENNYKTTPPVLDSDGSFFLYSKLTVDKSRWQQGNVFSCSVLHEALHSHYTQKSLSLSPGK
light: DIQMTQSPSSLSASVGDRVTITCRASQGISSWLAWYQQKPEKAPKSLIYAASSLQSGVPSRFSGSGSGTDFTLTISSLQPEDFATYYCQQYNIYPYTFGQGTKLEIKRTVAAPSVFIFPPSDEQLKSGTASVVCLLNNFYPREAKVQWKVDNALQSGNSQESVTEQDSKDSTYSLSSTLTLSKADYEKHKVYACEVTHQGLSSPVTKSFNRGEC
chain 1: not shown
chain 2: QVQLVQSGAEVKKPGASVKVSCKASGYDYTYYGISWVRQAPGQGLEWMGWISTYNTGTHYAPSLQGRVTMTTDTSTSTAYMELRSLRSDDTAVYYCARESYYGSGAFRGGMDVWGQGTTVTVSSASTKGPSVFPLAPSSKSTSGGTAALGCLVKDYFPEPVTVSWNSGALTSGVHTFPAVLQSSGLYSLSSVVTVPSSSLGTQTYICNVNHKPSNTKVDKKVEPKSC
notes: Single cell KiH, modified Fd format; IgG1 effector-function-minimized Fc with LS mutations
Kd (human IL-12): 0.123 nM | koff (human IL-12): 0.000258 s⁻¹ | kon (human IL-12): 2.1e+06 M⁻¹ s⁻¹ | binding result (rat IL-12): no binding (tested: 200 nM) | binding result (rabbit IL-12): no binding (tested: 200 nM) | Kd (cynomolgus monkey IL-12): 0.267 nM | koff (cynomolgus monkey IL-12): 0.000636 s⁻¹ | kon (cynomolgus monkey IL-12): 2.38e+06 M⁻¹ s⁻¹ | binding result (mouse IL-12): no binding (tested: 200 nM)
